According to the Human Domainome abundance scans (Beltran et al. 2025):
± gives the uncertainty stated by the source.

B1: E3 ubiquitin-protein ligase NEDD4-like, residues 539 to 589; numbered along this chain, Q96PU5 (parent)
chain: KTSLNPNDLGPLPPGWEERIHLDGRTFYIDHNSKITQWEDPRLQNPAITGP

Variants of: B1
Experiment: abundance fitness (aPCA) (normalised: wild type 0, dead -1); higher = more abundant; growth selection in yeast, the domain comes from the species named
Conditions: Homo sapiens

Variant | abundance fitness
G15D | -0.471 ± 0.086
G15Y | -0.53 ± 0.13
G15I | -0.429 ± 0.13
G15K | -0.447 ± 0.077
G15T | -0.526 ± 0.065
G15H | -0.407 ± 0.18
G15C | -0.442 ± 0.056
G15P | -0.471 ± 0.05
G15E | -0.425 ± 0.079
G15A | -0.361 ± 0.048
G15S | -0.394 ± 0.042
G15N | -0.018 ± 0.084
G15M | -0.406 ± 0.051
G15F | -0.491 ± 0.098
G15L | -0.622 ± 0.062
G15Q | -0.321 ± 0.057
G15R | -0.498 ± 0.064
E18T | -0.27 ± 0.049
E18H | -0.68 ± 0.17
E18Q | 0 ± 0.093
E18P | -0.48 ± 0.048
E18Y | -0.417 ± 0.12
E18C | -0.252 ± 0.053
E18V | -0.322 ± 0.053

Variant | abundance fitness
E18R | -0.159 ± 0.061
E18M | -0.444 ± 0.094
E18K | -0.274 ± 0.089
E18G | -0.503 ± 0.06
E18W | -0.962 ± 0.1
E18L | -0.802 ± 0.087
E18F | -0.736 ± 0.14
E18A | -0.071 ± 0.042
E18I | -0.796 ± 0.16
H21C | 0.057 ± 0.048
H21E | -0.052 ± 0.057
H21K | -0.178 ± 0.097
H21G | 0.166 ± 0.046
H21P | -0.693 ± 0.14
H21R | -0.149 ± 0.064
H21I | -0.478 ± 0.12
H21W | -0.051 ± 0.077
H21L | -0.289 ± 0.064
H21Y | -0.151 ± 0.069
H21T | 0.087 ± 0.072
H21N | -0.244 ± 0.11
H21F | -0.439 ± 0.11
H21M | -0.124 ± 0.086
H21D | 0.101 ± 0.053

Variant | abundance fitness
H21A | 0.102 ± 0.062
H21S | 0.221 ± 0.053
H21V | -0.296 ± 0.046
F27G | -0.197 ± 0.047
F27C | -0.056 ± 0.076
F27A | -0.112 ± 0.047
F27Q | 0.042 ± 0.084
F27L | -0.039 ± 0.047
F27D | -0.27 ± 0.07
F27N | -0.201 ± 0.1
F27E | 0.175 ± 0.07
F27I | -0.163 ± 0.098
F27K | -0.002 ± 0.072
F27P | -0.357 ± 0.058
G10A | -0.076 ± 0.041
G10T | -0.15 ± 0.074
G10V | -0.181 ± 0.045
G10W | -0.433 ± 0.048
G10H | -0.53 ± 0.12
G10Y | -0.571 ± 0.12
G10M | -0.485 ± 0.07
G10R | -0.263 ± 0.056
G10C | -0.28 ± 0.079
G10N | 0.139 ± 0.092

Variant | abundance fitness
G10P | -0.347 ± 0.046
G10I | -0.508 ± 0.13
G10D | -0.24 ± 0.058
G10Q | -0.276 ± 0.049
G10S | -0.268 ± 0.059
G10L | -0.429 ± 0.043
G10K | -0.238 ± 0.078
I20F | -0.246 ± 0.092
I20A | -0.069 ± 0.048
I20N | -0.467 ± 0.12
I20K | 0.209 ± 0.075
I20Q | -0.148 ± 0.11
I20Y | -0.164 ± 0.051
I20C | 0.192 ± 0.096
I20W | -0.228 ± 0.08
I20R | -0.006 ± 0.065
I20G | -0.289 ± 0.052
I20S | 0.047 ± 0.064
I20E | 0.022 ± 0.089
I20H | -0.125 ± 0.11
I20P | -0.226 ± 0.1
I20L | -0.024 ± 0.062
I20M | -0.131 ± 0.076
I20V | 0.093 ± 0.048

Variant | abundance fitness
E17L | -0.856 ± 0.07
E17F | -0.753 ± 0.14
E17R | -0.746 ± 0.046
E17H | -0.157 ± 0.12
E17N | -0.61 ± 0.056
E17T | -0.628 ± 0.069
E17Y | -0.986 ± 0.14
E17K | -0.571 ± 0.051
E17D | -0.606 ± 0.064
E17I | -0.432 ± 0.11
E17V | -0.477 ± 0.065
E17Q | -0.361 ± 0.1
E17P | -0.877 ± 0.19
E17S | -0.246 ± 0.055
E17M | -0.821 ± 0.08
E17C | -0.457 ± 0.047
E17A | -0.705 ± 0.051
D8Q | -0.189 ± 0.053
D8N | 0.013 ± 0.069
D8L | -0.304 ± 0.044
D8I | -0.189 ± 0.051
D8R | -0.034 ± 0.053
D8M | -0.307 ± 0.088
D8P | -0.218 ± 0.057

Variant | abundance fitness
D8S | -0.147 ± 0.047
D8H | -0.194 ± 0.069
D8W | -0.466 ± 0.053
D8F | -0.321 ± 0.092
D8A | -0.138 ± 0.057
D8C | 0.033 ± 0.083
D8K | -0.022 ± 0.063
W16M | -0.46 ± 0.082
W16Y | -0.41 ± 0.098
W16H | -0.386 ± 0.059
W16Q | -0.388 ± 0.088
W16E | -0.393 ± 0.081
W16D | -0.353 ± 0.065
W16A | -0.342 ± 0.045
W16S | -0.471 ± 0.065
W16K | -0.29 ± 0.1
W16R | -0.408 ± 0.042
W16N | -0.222 ± 0.1
W16L | -0.509 ± 0.043
W16T | -0.565 ± 0.075
W16I | -0.684 ± 0.1
W16C | -0.502 ± 0.086
W16P | -0.385 ± 0.081
W16G | -0.223 ± 0.053

Variant | abundance fitness
G24L | -0.938 ± 0.077
G24M | -1.08 ± 0.18
G24C | -0.917 ± 0.095
G24P | -1.14 ± 0.12
G24W | -1.07 ± 0.077
G24K | -0.53 ± 0.05
G24S | -0.531 ± 0.052
G24I | -1.12 ± 0.24
G24E | -0.719 ± 0.072
G24V | -1.03 ± 0.065
G24Q | -0.705 ± 0.13
G24Y | -0.76 ± 0.18
G24F | -1.35 ± 0.22
G24N | -0.639 ± 0.12
G24A | -0.608 ± 0.064
G24R | -0.56 ± 0.057
N7Y | -0.395 ± 0.099
N7I | -0.169 ± 0.088
N7L | -0.212 ± 0.048
N7T | -0.007 ± 0.042
N7W | -0.4 ± 0.056
N7S | -0.042 ± 0.048
N7Q | -0.137 ± 0.08
